Results: patent publication US20180305695, “DNA APTAMER THAT BINDS TO vWF” (TAGCYX BIOTECHNOLOGIES, published 2018)

Biological target: von Willebrand factor A1 domain (Homo sapiens, UniProt P04275 SEQ:1277-1453)
Experiment: EMSA; positive control, gel 4 C; substantially no binding with gel at 25-37 C
Details: tags: U-Protein Express V003; label: biotin (SPR)
Experimental: The binding ability of the synthesized DNA aptamers was analyzed via gel shift assay. Specifically, the DNA aptamers (100 nM) and the vWF A1 domain (100 nM, V003, U-Protein) were suspended in 20 μl of a reaction solution (1×PBS, 0.005% Nonidet P-40), and incubated at 37° C. for 30 minutes. Thereafter, 25% glycerol containing bromophenol blue was added to be a final concentration of glycerol to 5% therein, the resultant was subjected to 8% nondenaturing polyacrylamide gel electrophoresis at 4° C., and the DNA aptamers bound to the vWF A1 domain were separated from the free DNA aptamers. Thereafter, the DNA aptamers were stained with SYBR Gold (Thermo Fisher Scientific) diluted 1/20,000-fold with the 1×TBE solution and detected by a bioimage analyzer (LAS-4000, Fujifilm Corporation). The percentage of gel shifting was determined by dividing the amount of the complex by the amount of the free form and the complex, each deduced based on a band and expressing the determined value in a percentage figure.
Gel shift assay was carried out in the same manner as in Example 3, except that electrophoresis was carried out at 4° C. and 300 V, 25° C. and 40 W, and 37° C. and 40 W.
And the activity of vWF2-DsAA (o) and vWF2-AADs (p) were decreased in comparison with vWF2-DsDsDs (m).

GGCGTGCAGTGCCTTCGGCCGTGCGGTGCCTCCGTCACGCC (ssDNA) [ARC1172]
binding result: binds
